Results reported in doi:10.1101/2022.02.18.481027.

How the values were obtained:
[1] = target: Murine GP130 ectodomain with C-terminal biotin acceptor peptide, biotinylated (murine) (UniProt Q00560); test: SPR
[2] = target: Murine IL-27Rα ectodomain (amino acids 28-224), N-terminally biotinylated (murine) (UniProt O70394); test: SPR
Chain of Murine IL-27Rα ectodomain (amino acids 28-224), N-terminally biotinylated (murine) (O70394 28-224): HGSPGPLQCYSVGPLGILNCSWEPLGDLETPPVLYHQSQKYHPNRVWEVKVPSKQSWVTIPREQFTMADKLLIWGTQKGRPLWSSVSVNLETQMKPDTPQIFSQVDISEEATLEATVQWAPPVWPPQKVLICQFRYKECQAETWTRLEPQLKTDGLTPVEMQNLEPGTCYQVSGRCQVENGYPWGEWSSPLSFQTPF

Chain of Murine GP130 ectodomain with C-terminal biotin acceptor peptide, biotinylated (murine) (Q00560 23-319): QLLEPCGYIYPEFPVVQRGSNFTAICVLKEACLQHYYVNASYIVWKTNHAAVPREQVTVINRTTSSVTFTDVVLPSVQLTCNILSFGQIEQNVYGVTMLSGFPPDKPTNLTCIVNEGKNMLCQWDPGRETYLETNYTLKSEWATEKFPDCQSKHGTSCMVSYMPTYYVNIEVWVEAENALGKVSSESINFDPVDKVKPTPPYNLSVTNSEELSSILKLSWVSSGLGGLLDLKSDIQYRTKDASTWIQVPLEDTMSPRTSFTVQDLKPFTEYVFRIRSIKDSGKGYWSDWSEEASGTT

- Kd [1]: 3.1 nM
- Kd [2]: 0.29 nM
Substance: Murine IL-27, linker-connected single-chain variant (p28+EBI3) (ligand)
